Results as given in US20100099610.

Key:
[1] = molecular target: wild type human growth hormone, P01241
Chain of wild type human growth hormone, P01241 (P01241 27-217): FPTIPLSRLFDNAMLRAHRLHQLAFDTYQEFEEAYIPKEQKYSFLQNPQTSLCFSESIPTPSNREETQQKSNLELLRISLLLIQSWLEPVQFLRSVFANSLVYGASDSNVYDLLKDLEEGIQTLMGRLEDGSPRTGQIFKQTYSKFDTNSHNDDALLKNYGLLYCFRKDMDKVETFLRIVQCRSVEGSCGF

Chain of hGHQ141N, P01241 (P01241 27-217 Q167N): as the sequence (P01241 27-217) above, with Q141N counted along it
Chain of hGHQ40N, P01241 (P01241 27-217 Q66N): as the sequence (P01241 27-217) above, with Q40N counted along it

B1: Met-mTGase from S. mobaraensis (protein)
chain: MDSDDRVTPPAEPLDRMPDPYRPSYGRAETVVNNYIRKWQQVYSHRDGRKQQMTEEQREWLSYGCVGVTWVNSGQYPTNRLAFASFDEDRFKNELKNGRPRSGETRAEFEGRVAKESFDEEKGFQRAREVASVMNRALENAHDESAYLDNLKKELANGNDALRNEDARSPFYSALRNTPSFKERNGGNHDPSRMKAVIYSKHFWSGQDRSSSADKRKYGDPDAFRPAPGTGLVDMSRDRNIPRSPTSPGEGFVNFDYGWFGAQTEADADKTVWTHGNHYHAPNGSLGAMHVYESKFRNWSEGYSDFDRGAYVITFIPKSWNTAPDKVKQGWP
Activity (RFU/sec/µg), dansyl-cadaverine fluorescence kinetics (hGHQ141N, P01241): 1.24 RFU/sec/µg | Activity towards hGHQ40N (RFU/sec/µg), dansyl-cadaverine fluorescence kinetics (hGHQ40N, P01241): 5.44 RFU/sec/µg

B2: AlaPro-mTGase from S. ladakanum (protein)
chain: APDSDERVTPPAEPLDRMPDPYRPSYGRAETIVNNYIRKWQQVYSHRDGRKQQMTEEQREWLSYGCVGVTWVNSGQYPTNRLAFAFFDEDKYKNELKNGRPRSGETRAEFEGRVAKDSFDEAKGFQRARDVASVMNKALENAHDEGAYLDNLKKELANGNDALRNEDARSPFYSALRNTPSFKDRNGGNHDPSKMKAVIYSKHFWSGQDRSGSSDKRKYGDPEAFRPDRGTGLVDMSRDRNIPRSPTSPGESFVNFDYGWFGAQTEADADKTVWTHGNHYHAPNGSLGAMHVYESKFRNWSDGYSDFDRGAYVVTFVPKSWNTAPDKVKQGWP
Activity (RFU/sec/µg), dansyl-cadaverine fluorescence kinetics (hGHQ141N, P01241): 1.02 RFU/sec/µg | Activity towards hGHQ40N (RFU/sec/µg), dansyl-cadaverine fluorescence kinetics (hGHQ40N, P01241): 6.91 RFU/sec/µg

B3: GlyPro-mTGase_Y75N from S. ladakanum (protein)
chain: GPDSDERVTPPAEPLDRMPDPYRPSYGRAETIVNNYIRKWQQVYSHRDGRKQQMTEEQREWLSYGCVGVTWVNSGQNPTNRLAFAFFDEDKYKNELKNGRPRSGETRAEFEGRVAKDSFDEAKGFQRARDVASVMNKALENAHDEGAYLDNLKKELANGNDALRNEDARSPFYSALRNTPSFKDRNGGNHDPSKMKAVIYSKHFWSGQDRSGSSDKRKYGDPEAFRPDRGTGLVDMSRDRNIPRSPTSPGESFVNFDYGWFGAQTEADADKTVWTHGNHYHAPNGSLGAMHVYESKFRNWSDGYSDFDRGAYVVTFVPKSWNTAPDKVKQGWP
hGH conv. rate (%) by CE; reaction time 120 m, enzyme 6.5 µg/ml [1]: 44% | hGH conversion rate by CE (FIG. 2F); reaction time 90 m [1]: hGH conversion rate=50%

B4: GlyPro-mTGase_Y62H_Y75F from S. ladakanum (protein)
chain: GPDSDERVTPPAEPLDRMPDPYRPSYGRAETIVNNYIRKWQQVYSHRDGRKQQMTEEQREWLSHGCVGVTWVNSGQFPTNRLAFAFFDEDKYKNELKNGRPRSGETRAEFEGRVAKDSFDEAKGFQRARDVASVMNKALENAHDEGAYLDNLKKELANGNDALRNEDARSPFYSALRNTPSFKDRNGGNHDPSKMKAVIYSKHFWSGQDRSGSSDKRKYGDPEAFRPDRGTGLVDMSRDRNIPRSPTSPGESFVNFDYGWFGAQTEADADKTVWTHGNHYHAPNGSLGAMHVYESKFRNWSDGYSDFDRGAYVVTFVPKSWNTAPDKVTQGWP
RS (relative selectivity against AlaPro-mTGase from S. mobaraensis), separate experiment [1]: 7.6 | Selectivity (Q141/Q40) by CE, separate experiment; reaction time 60 m, enzyme 8.8 µg/ml [1]: 76.5 | hGH conv. rate (%) by CE, separate experiment; reaction time 60 m, enzyme 8.8 µg/ml [1]: 38.1% | hGH conv. rate (%) by CE; reaction time 120 m, enzyme 7 µg/ml [1]: 49.4%

B5: GlyPro-mTGase_Y62H_Y75N from S. ladakanum (protein)
chain: GPDSDERVTPPAEPLDRMPDPYRPSYGRAETIVNNYIRKWQQVYSHRDGRKQQMTEEQREWLSHGCVGVTWVNSGQNPTNRLAFAFFDEDKYKNELKNGRPRSGETRAEFEGRVAKDSFDEAKGFQRARDVASVMNKALENAHDEGAYLDNLKKELANGNDALRNEDARSPFYSALRNTPSFKDRNGGNHDPSKMKAVIYSKHFWSGQDRSGSSDKRKYGDPEAFRPDRGTGLVDMSRDRNIPRSPTSPGESFVNFDYGWFGAQTEADADKTVWTHGNHYHAPNGSLGAMHVYESKFRNWSDGYSDFDRGAYVVTFVPKSWNTAPDKVKQGWP
hGH conv. rate (%) by CE; reaction time 75 m, enzyme 34.5 µg/ml [1]: 38%

B6: GlyPro-mTGase from S. ladakanum (protein)
chain: GPDSDERVTPPAEPLDRMPDPYRPSYGRAETIVNNYIRKWQQVYSHRDGRKQQMTEEQREWLSYGCVGVTWVNSGQYPTNRLAFAFFDEDKYKNELKNGRPRSGETRAEFEGRVAKDSFDEAKGFQRARDVASVMNKALENAHDEGAYLDNLKKELANGNDALRNEDARSPFYSALRNTPSFKDRNGGNHDPSKMKAVIYSKHFWSGQDRSGSSDKRKYGDPEAFRPDRGTGLVDMSRDRNIPRSPTSPGESFVNFDYGWFGAQTEADADKTVWTHGNHYHAPNGSLGAMHVYESKFRNWSDGYSDFDRGAYVVTFVPKSWNTAPDKVKQGWP
hGH conv. rate (%) by CE; reaction time 15 m, enzyme 16 µg/ml [1]: 55% | Activity (RFU/sec/µg), dansyl-cadaverine fluorescence kinetics (hGHQ141N, P01241): 0.48 RFU/sec/µg | Activity towards hGHQ40N (RFU/sec/µg), dansyl-cadaverine fluorescence kinetics (hGHQ40N, P01241): 4.25 RFU/sec/µg

B7: GlyPro-mTGase_Y75F from S. ladakanum (protein)
chain: GPDSDERVTPPAEPLDRMPDPYRPSYGRAETIVNNYIRKWQQVYSHRDGRKQQMTEEQREWLSYGCVGVTWVNSGQFPTNRLAFAFFDEDKYKNELKNGRPRSGETRAEFEGRVAKDSFDEAKGFQRARDVASVMNKALENAHDEGAYLDNLKKELANGNDALRNEDARSPFYSALRNTPSFKDRNGGNHDPSKMKAVIYSKHFWSGQDRSGSSDKRKYGDPEAFRPDRGTGLVDMSRDRNIPRSPTSPGESFVNFDYGWFGAQTEADADKTVWTHGNHYHAPNGSLGAMHVYESKFRNWSDGYSDFDRGAYVVTFVPKSWNTAPDKVKQGWP
hGH conv. rate (%) by CE; reaction time 60 m, enzyme 12.9 µg/ml [1]: 41% | hGH conversion rate by CE (FIG. 2E); reaction time 75 m [1]: hGH conversion rate=33%

B8: Mature mTGase from Streptoverticillium ladakanum (protein)
chain: DSDERVTPPAEPLDRMPDPYRPSYGRAETIVNNYIRKWQQVYSHRDGRKQQMTEEQREWLSYGCVGVTWVNSGQYPTNRLAFAFFDEDKYKNELKNGRPRSGETRAEFEGRVAKDSFDEAKGFQRARDVASVMNKALENAHDEGAYLDNLKKELANGNDALRNEDARSPFYSALRNTPSFKDRNGGNHDPSKMKAVIYSKHFWSGQDRSGSSDKRKYGDPEAFRPDRGTGLVDMSRDRNIPRSPTSPGESFVNFDYGWFGAQTEADADKTVWTHGNHYHAPNGSLGAMHVYESKFRNWSDGYSDFDRGAYVVTFVPKSWNTAPDKVKQGWP
Activity (RFU/sec/µg), dansyl-cadaverine fluorescence kinetics (hGHQ141N, P01241): 0.63 RFU/sec/µg | HPLC peak area of product-Q40 (FIG. 3, bottom) (hGHQ141N, P01241): The first peak (19.2 min, area 127) is product-Q40 | product-Q40 after 30 minutes, FPLC areas normalized to 100 (normalized to 100) (hGHQ141N, P01241): 10 | Activity towards hGHQ40N (RFU/sec/µg), dansyl-cadaverine fluorescence kinetics (hGHQ40N, P01241): 3.55 RFU/sec/µg | HPLC peak area of product-Q141 (FIG. 3, top) (hGHQ40N, P01241): The first peak (26.5 min, area 1238) is product-Q141 | product-Q141 after 30 minutes, FPLC areas normalized to 100 (normalized to 100) (hGHQ40N, P01241): 77

B9: Met-mTGase from S. ladakanum (protein)
chain: MDSDERVTPPAEPLDRMPDPYRPSYGRAETIVNNYIRKWQQVYSHRDGRKQQMTEEQREWLSYGCVGVTWVNSGQYPTNRLAFAFFDEDKYKNELKNGRPRSGETRAEFEGRVAKDSFDEAKGFQRARDVASVMNKALENAHDEGAYLDNLKKELANGNDALRNEDARSPFYSALRNTPSFKDRNGGNHDPSKMKAVIYSKHFWSGQDRSGSSDKRKYGDPEAFRPDRGTGLVDMSRDRNIPRSPTSPGESFVNFDYGWFGAQTEADADKTVWTHGNHYHAPNGSLGAMHVYESKFRNWSDGYSDFDRGAYVVTFVPKSWNTAPDKVKQGWP
Activity (RFU/sec/µg), dansyl-cadaverine fluorescence kinetics (hGHQ141N, P01241): 0.8 RFU/sec/µg | Activity towards hGHQ40N (RFU/sec/µg), dansyl-cadaverine fluorescence kinetics (hGHQ40N, P01241): 4.74 RFU/sec/µg

B10: mTGase from Streptomyces mobaraensis (protein)
chain: DSDDRVTPPAEPLDRMPDPYRPSYGRAETVVNNYIRKWQQVYSHRDGRKQQMTEEQREWLSYGCVGVTWVNSGQYPTNRLAFASFDEDRFKNELKNGRPRSGETRAEFEGRVAKESFDEEKGFQRAREVASVMNRALENAHDESAYLDNLKKELANGNDALRNEDARSPFYSALRNTPSFKERNGGNHDPSRMKAVIYSKHFWSGQDRSSSADKRKYGDPDAFRPAPGTGLVDMSRDRNIPRSPTSPGEGFVNFDYGWFGAQTEADADKTVWTHGNHYHAPNGSLGAMHVYESKFRNWSEGYSDFDRGAYVITFIPKSWNTAPDKVKQGWP
Activity (RFU/sec/µg), dansyl-cadaverine fluorescence kinetics (hGHQ141N, P01241): 0.98 RFU/sec/µg | HPLC peak area of product-Q40 (FIG. 4, bottom) (hGHQ141N, P01241): The first peak (19.5 min, area 296) is product-Q40 | product-Q40 after 30 minutes, FPLC areas normalized to 100 (normalized to 100) (hGHQ141N, P01241): 19 | Activity towards hGHQ40N (RFU/sec/µg), dansyl-cadaverine fluorescence kinetics (hGHQ40N, P01241): 3.35 RFU/sec/µg | HPLC peak area of product-Q141 (FIG. 4, top) (hGHQ40N, P01241): The first peak (26.9 min, area 1283) is product-Q141 | product-Q141 after 30 minutes, FPLC areas normalized to 100 (normalized to 100) (hGHQ40N, P01241): 71

B11: AlaPro-mTGase from S. mobaraensis (protein)
chain: APDSDDRVTPPAEPLDRMPDPYRPSYGRAETVVNNYIRKWQQVYSHRDGRKQQMTEEQREWLSYGCVGVTWVNSGQYPTNRLAFASFDEDRFKNELKNGRPRSGETRAEFEGRVAKESFDEEKGFQRAREVASVMNRALENAHDESAYLDNLKKELANGNDALRNEDARSPFYSALRNTPSFKERNGGNHDPSRMKAVIYSKHFWSGQDRSSSADKRKYGDPDAFRPAPGTGLVDMSRDRNIPRSPTSPGEGFVNFDYGWFGAQTEADADKTVWTHGNHYHAPNGSLGAMHVYESKFRNWSEGYSDFDRGAYVITFIPKSWNTAPDKVKQGWP
conversion rate by CE (FIG. 2B); reaction time 30 minutes [1]: conversion rate=32% | hGH conv. rate (%) by CE, reference of the separate experiment; reaction time 45 m, enzyme 4.6 µg/ml [1]: 39% | hGH conv. rate (%) by CE; reaction time 30 m, enzyme 9.6 µg/ml [1]: 33% | Activity (RFU/sec/µg), dansyl-cadaverine fluorescence kinetics (hGHQ141N, P01241): 1.56 RFU/sec/µg | Activity towards hGHQ40N (RFU/sec/µg), dansyl-cadaverine fluorescence kinetics (hGHQ40N, P01241): 5.05 RFU/sec/µg

B12: GlyPro-mTGase from S. mobaraensis (protein)
chain: GPDSDDRVTPPAEPLDRMPDPYRPSYGRAETVVNNYIRKWQQVYSHRDGRKQQMTEEQREWLSYGCVGVTWVNSGQYPTNRLAFASFDEDRFKNELKNGRPRSGETRAEFEGRVAKESFDEEKGFQRAREVASVMNRALENAHDESAYLDNLKKELANGNDALRNEDARSPFYSALRNTPSFKERNGGNHDPSRMKAVIYSKHFWSGQDRSSSADKRKYGDPDAFRPAPGTGLVDMSRDRNIPRSPTSPGEGFVNFDYGWFGAQTEADADKTVWTHGNHYHAPNGSLGAMHVYESKFRNWSEGYSDFDRGAYVITFIPKSWNTAPDKVKQGWP
Activity (RFU/sec/µg), dansyl-cadaverine fluorescence kinetics (hGHQ141N, P01241): 1.13 RFU/sec/µg | Activity towards hGHQ40N (RFU/sec/µg), dansyl-cadaverine fluorescence kinetics (hGHQ40N, P01241): 4.28 RFU/sec/µg
